Data published in US20260193348A1 (ANTENGENE BIOLOGICS, published 2026).

T1: CD20 on DoHH2 cells (human, UniProt P11836 1-297)
T1 construct: whole, on cells; Endogenous CD20 on the human DoHH2 cell line; also called DoHH2 cells expressing CD20
T1 sequence (looked up): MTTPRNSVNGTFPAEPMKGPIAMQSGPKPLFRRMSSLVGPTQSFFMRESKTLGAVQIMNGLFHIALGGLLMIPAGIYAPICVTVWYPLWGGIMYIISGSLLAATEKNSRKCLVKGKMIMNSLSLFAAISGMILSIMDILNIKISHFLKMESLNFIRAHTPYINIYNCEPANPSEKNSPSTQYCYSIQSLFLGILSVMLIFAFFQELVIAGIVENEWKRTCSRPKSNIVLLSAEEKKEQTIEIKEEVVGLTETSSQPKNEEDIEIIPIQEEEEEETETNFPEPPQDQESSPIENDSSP

T2: CD19 on NALM6 cells, Raji cells and primary B cells (human, UniProt P15391 20-556)
T2 construct: whole, on cells; Endogenous CD19 on human cell lines / donor B cells; also called NALM6 cells expressing CD19; Raji cells expressing CD19
T2 sequence (looked up): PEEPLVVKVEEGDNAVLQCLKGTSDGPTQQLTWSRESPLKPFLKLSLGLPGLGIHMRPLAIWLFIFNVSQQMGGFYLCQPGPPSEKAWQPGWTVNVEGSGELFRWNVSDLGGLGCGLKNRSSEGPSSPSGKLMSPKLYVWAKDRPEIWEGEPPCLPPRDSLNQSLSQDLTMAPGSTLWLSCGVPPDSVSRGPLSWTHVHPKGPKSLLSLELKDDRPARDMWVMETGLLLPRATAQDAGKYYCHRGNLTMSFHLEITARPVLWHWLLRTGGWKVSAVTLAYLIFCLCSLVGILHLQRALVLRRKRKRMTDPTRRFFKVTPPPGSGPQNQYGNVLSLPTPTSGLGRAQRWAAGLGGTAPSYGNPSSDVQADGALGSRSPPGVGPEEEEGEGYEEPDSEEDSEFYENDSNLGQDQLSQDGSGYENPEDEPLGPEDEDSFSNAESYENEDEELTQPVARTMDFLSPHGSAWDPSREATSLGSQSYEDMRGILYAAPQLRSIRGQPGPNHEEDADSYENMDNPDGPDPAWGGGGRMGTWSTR


How the values were obtained:
[1] = target: T1, CD20 on DoHH2 cells; test: FACS on DoHH2 cells expressing CD20 (FIG. 45E)
[2] = target: T3, CD3 on T cells / Jurkat cells (human, UniProt P07766 23-207; P04234 22-171; P09693 23-182); test: FACS on Jurkat cells expressing CD3
T3 construct: whole, on cells; Native CD3 complex on CD3+ T cells isolated from normal donors or on Jurkat cells; also called human CD3; CD3+ T cells

[3] = target: T2, CD19 on NALM6 cells, Raji cells and …; test: FACS on Raji cells expressing CD19 (FIG. 45C)
Description: (§1) To evaluate the binding affinity of the generated bispecific antibodies to NALM6 cells, Raji cells, Primary B cells, DoHH2 cells, SU-DHL-1 cells and Jurkat cells, the NALM6 cells expressing CD19, Raji cells expressing CD19, Primary B cells, DoHH2 cells expressing CD20, SU-DHL-1 cells without expressing CD19 or CD20 and Jurkat cells expressing CD3 were stained by the test antibodies and the binding affinity was determined by FACS analysis. Primary B cells were isolated from healthy donors' PBMC by human B cell enrichment Kit (Stemcell #19054). The protocol of FACS analysis is described as follows: [0933] (a) The cells from each cell line above were harvested and centrifuged at 300 g for 5 min, and the supernatant were discarded. […] (b) The cells were washed 2 times with FACS buffer. [0935] (c) Step (a) was repeated. [0936] […] [0937] (e) Step (b) was repeated and the cells were resuspended with 100 μl/well diluted secondary antibody, and incubated at 4° C. for 45 minutes in the dark. [0938] (f) Step (b) was repeated and the cells were resuspended the cells with 150 μl/well FACS buffer and kept in dark for FACS analysis.

[4] = target: T2, CD19 on NALM6 cells, Raji cells and …; test: FACS on NALM6 cells expressing CD19, another experiment (FIG. 45B)
Description: as §1

[5] = target: T2, CD19 on NALM6 cells, Raji cells and …; test: FACS on primary B cells from healthy donors' PBMC (FIG. 45D)
Description: as §1

[6] = target: T3, CD3 on T cells / Jurkat cells; test: FACS on CD3+ T cells isolated from normal donors

T3 sequence (P07766 23-207, chain 1 of 3): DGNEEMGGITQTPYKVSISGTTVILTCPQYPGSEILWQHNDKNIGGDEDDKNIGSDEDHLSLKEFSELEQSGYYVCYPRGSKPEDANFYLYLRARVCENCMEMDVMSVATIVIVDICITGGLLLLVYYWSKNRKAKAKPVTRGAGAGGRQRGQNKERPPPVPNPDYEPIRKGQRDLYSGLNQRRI
T3 sequence (P04234 22-171, chain 2 of 3): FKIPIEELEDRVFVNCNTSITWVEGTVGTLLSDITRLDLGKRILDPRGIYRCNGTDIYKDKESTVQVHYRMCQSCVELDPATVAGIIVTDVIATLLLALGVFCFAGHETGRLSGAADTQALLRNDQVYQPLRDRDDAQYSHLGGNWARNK
T3 sequence (P09693 23-182, chain 3 of 3): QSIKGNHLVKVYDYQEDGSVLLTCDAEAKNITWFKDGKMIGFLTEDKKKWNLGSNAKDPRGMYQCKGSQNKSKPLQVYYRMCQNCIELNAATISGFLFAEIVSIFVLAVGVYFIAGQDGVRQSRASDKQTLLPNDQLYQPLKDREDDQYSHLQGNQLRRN

Row | Binder | EC50 [1] | binding result [2] | EC50 [3] | EC50 [4] | EC50 [5] | binding result [6]
1 | ATG201-Y101F-200 (bispecific antibody, human IgG1, kappa, L234A L235A, L234A/L235A; also called ATG201-Y101F-20O) heavy 1: not shown heavy 2: EVQLVESGGGLVQPGRSLRLSCAASGFTFNDYAMHWVRQAPGKGLEWVSTISWNSGSIGYADSVKGRFTISRDNAKKSLYLQMNSLRAEDTALYYCAKDIQYGNYYYGMDVWGQGTTVTVSSASTKGPSVFPLAPSSKSTSGGTAALGCLVKDYFPEPVTVSWNSGALTSGVHTFPAVLQSSGLYSLSSVVTVPSSSLGTQTYICNVNHKPSNTKVDKKVEPKSCGGGGSGGGGSEVQLVQSGAEVKKPGSSVKVSCKASGYTFSSYVIHWVRQAPGQCLEWMGYINPYNDVIKYNEKFKGRVTLTSDKSTSTAYMELSSLRSEDTAVYYCARDSFYSYDGFAYWGQGTLVTVSSGGGGSGGGGSGGGGSGGGGSEIVLTQSPDFQSVTPKEKVTITCSASSSVSYMHWYQQKPDQSPKRLIYDTSKLASGVPSRFSGSGSGTDFTLTINSLEAEDAATYYCQQWSSNPPTFGCGTKVEIKGGGGSGGGGSDKTHTCPPCPAPEAAGGPSVFLFPPKPKDTLMISRTPEVTCVVVDVSHEDPEVKFNWYVDGVEVHNAKTKPREEQYNSTYRVVSVLTVLHQDWLNGKEYKCKVSNKALPAPIEKTISKAKGQPREPQVCTLPPSREEMTKNQVSLSCAVKGFYPSDIAVEWESNGQPENNYKTTPPVLDSDGSFFLVSKLTVDKSRWQQGNVFSCSVMHEALHNHYTQKSLSLSPGK light: not shown | 7.55 nM | binds | – | – | – | –
2 | ATG201-N55S-200 (bispecific antibody, human IgG1, kappa, L234A L235A, L234A/L235A; also called ATG201-N55S-20O) heavy 1: not shown heavy 2: EVQLVESGGGLVQPGRSLRLSCAASGFTFNDYAMHWVRQAPGKGLEWVSTISWNSGSIGYADSVKGRFTISRDNAKKSLYLQMNSLRAEDTALYYCAKDIQYGNYYYGMDVWGQGTTVTVSSASTKGPSVFPLAPSSKSTSGGTAALGCLVKDYFPEPVTVSWNSGALTSGVHTFPAVLQSSGLYSLSSVVTVPSSSLGTQTYICNVNHKPSNTKVDKKVEPKSCGGGGSGGGGSEVQLVQSGAEVKKPGSSVKVSCKASGYTFSSYVIHWVRQAPGQCLEWMGYINPYSDVIKYNEKFKGRVTLTSDKSTSTAYMELSSLRSEDTAVYYCARDSYYSYDGFAYWGQGTLVTVSSGGGGSGGGGSGGGGSGGGGSEIVLTQSPDFQSVTPKEKVTITCSASSSVSYMHWYQQKPDQSPKRLIYDTSKLASGVPSRFSGSGSGTDFTLTINSLEAEDAATYYCQQWSSNPPTFGCGTKVEIKGGGGSGGGGSDKTHTCPPCPAPEAAGGPSVFLFPPKPKDTLMISRTPEVTCVVVDVSHEDPEVKFNWYVDGVEVHNAKTKPREEQYNSTYRVVSVLTVLHQDWLNGKEYKCKVSNKALPAPIEKTISKAKGQPREPQVCTLPPSREEMTKNQVSLSCAVKGFYPSDIAVEWESNGQPENNYKTTPPVLDSDGSFFLVSKLTVDKSRWQQGNVFSCSVMHEALHNHYTQKSLSLSPGK light: not shown | 4.89 nM | binds | – | – | – | –
3 | ATG201-N55S-19B (bispecific antibody, human IgG1, kappa, L234A L235A, CD19xCD3 Fab-scFv-Fab: two C19B Fabs, anti-CD3 scFv 40E9-L2H3-N55S.H; L234A/L235A) heavy 1: not shown heavy 2: QVQLQQSGAELVRPGSSVKISCKASGYAFSSYWMNWVKQRPGQGLEWIGQIWPGDGDTNYNGKFKGKATLTADESSSTAYMQLSSLASEDSAVYFCARRETTTVGRYYYAMDYWGQGTTVTVSSASTKGPSVFPLAPSSKSTSGGTAALGCLVKDYFPEPVTVSWNSGALTSGVHTFPAVLQSSGLYSLSSVVTVPSSSLGTQTYICNVNHKPSNTKVDKKVEPKSCGGGGSGGGGSEVQLVQSGAEVKKPGSSVKVSCKASGYTFSSYVIHWVRQAPGQCLEWMGYINPYSDVIKYNEKFKGRVTLTSDKSTSTAYMELSSLRSEDTAVYYCARDSYYSYDGFAYWGQGTLVTVSSGGGGSGGGGSGGGGSGGGGSEIVLTQSPDFQSVTPKEKVTITCSASSSVSYMHWYQQKPDQSPKRLIYDTSKLASGVPSRFSGSGSGTDFTLTINSLEAEDAATYYCQQWSSNPPTFGCGTKVEIKGGGGSGGGGSDKTHTCPPCPAPEAAGGPSVFLFPPKPKDTLMISRTPEVTCVVVDVSHEDPEVKFNWYVDGVEVHNAKTKPREEQYNSTYRVVSVLTVLHQDWLNGKEYKCKVSNKALPAPIEKTISKAKGQPREPQVCTLPPSREEMTKNQVSLSCAVKGFYPSDIAVEWESNGQPENNYKTTPPVLDSDGSFFLVSKLTVDKSRWQQGNVFSCSVMHEALHNHYTQKSLSLSPGK light: not shown | – | binds | 1.11 nM | 0.513 nM | 0.442 nM | –
4 | ATG201-Y101F-19B (bispecific antibody, human IgG1, kappa, L234A L235A, CD19xCD3 Fab-scFv-Fab: two C19B Fabs, anti-CD3 scFv 40E9-L2H3-Y101F.H; L234A/L235A) heavy 1: not shown heavy 2: QVQLQQSGAELVRPGSSVKISCKASGYAFSSYWMNWVKQRPGQGLEWIGQIWPGDGDTNYNGKFKGKATLTADESSSTAYMQLSSLASEDSAVYFCARRETTTVGRYYYAMDYWGQGTTVTVSSASTKGPSVFPLAPSSKSTSGGTAALGCLVKDYFPEPVTVSWNSGALTSGVHTFPAVLQSSGLYSLSSVVTVPSSSLGTQTYICNVNHKPSNTKVDKKVEPKSCGGGGSGGGGSEVQLVQSGAEVKKPGSSVKVSCKASGYTFSSYVIHWVRQAPGQCLEWMGYINPYNDVIKYNEKFKGRVTLTSDKSTSTAYMELSSLRSEDTAVYYCARDSFYSYDGFAYWGQGTLVTVSSGGGGSGGGGSGGGGSGGGGSEIVLTQSPDFQSVTPKEKVTITCSASSSVSYMHWYQQKPDQSPKRLIYDTSKLASGVPSRFSGSGSGTDFTLTINSLEAEDAATYYCQQWSSNPPTFGCGTKVEIKGGGGSGGGGSDKTHTCPPCPAPEAAGGPSVFLFPPKPKDTLMISRTPEVTCVVVDVSHEDPEVKFNWYVDGVEVHNAKTKPREEQYNSTYRVVSVLTVLHQDWLNGKEYKCKVSNKALPAPIEKTISKAKGQPREPQVCTLPPSREEMTKNQVSLSCAVKGFYPSDIAVEWESNGQPENNYKTTPPVLDSDGSFFLVSKLTVDKSRWQQGNVFSCSVMHEALHNHYTQKSLSLSPGK light: not shown | – | binds | 1.11 nM | 0.508 nM | 0.359 nM | –
5 | Bis-GD2-Fab2-scFv (bispecific antibody, Two anti-GD2 Fabs (humanized 3F8) and one anti-CD3 scFv (40-C12-C10-E9) joined by (GGGGS)2 linkers to CH1 of one Fab and to CH2; L234A/L235A; also called Fab-scFv-Fab GD2xCD3 bispecific antibody) VH: QVQLVESGPGVVQPGRSLRISCAVSGFSVTNYGVHWVRQPPGKGLEWLGVIWAGGITNYNSAFMSRLTISKDNSKNTVYLQMNSLRAEDTAMYYCASRGGHYGYALDYWGQGTLVTVSS VL: EIVMTQTPATLSVSAGERVTITCKASQSVSNDVTWYQQKPGQAPRLLIYSASNRYSGVPARFSGSGYGTEFTFTISSVQSEDFAVYFCQQDYSSFGQGTKLEIK scFv: EVQLQLSGPELVKPGASVKMSCKASGYTFSSYVIHWVKQKPGQGLEWIGYINPYNDVIKYNEKFKGKATLTSDKSSSTAYMELSSLTSEDSAVYYCARDSYYSYDGFAYWGQGTLVTVSAGGGGSGGGGSGGGGSGGGGSQIVLTQSPAIMSASPGEKVTMTCSASSSVSYMHWYQQKSGTSPKRWIYDTSKLASGVPARFSGSGSGTSYSLTISSMEAEDAATYYCQQWSSNPPTFGGGTKVEIK | – | – | – | – | – | binds
6 | Bis-GD2-Fab3 (bispecific antibody, V domains shown, Fab3 format of WO2019154890A1: two anti-GD2 Fabs (humanized 3F8) and one anti-CD3 Fab (40-C12-C10-E9); also called Fab3 GD2xCD3 bispecific antibody) VH 1: QVQLVESGPGVVQPGRSLRISCAVSGFSVTNYGVHWVRQPPGKGLEWLGVIWAGGITNYNSAFMSRLTISKDNSKNTVYLQMNSLRAEDTAMYYCASRGGHYGYALDYWGQGTLVTVSS VL 1: EIVMTQTPATLSVSAGERVTITCKASQSVSNDVTWYQQKPGQAPRLLIYSASNRYSGVPARFSGSGYGTEFTFTISSVQSEDFAVYFCQQDYSSFGQGTKLEIK VH 2: EVQLQLSGPELVKPGASVKMSCKASGYTFSSYVIHWVKQKPGQGLEWIGYINPYNDVIKYNEKFKGKATLTSDKSSSTAYMELSSLTSEDSAVYYCARDSYYSYDGFAYWGQGTLVTVSA VL 2: QIVLTQSPAIMSASPGEKVTMTCSASSSVSYMHWYQQKSGTSPKRWIYDTSKLASGVPARFSGSGSGTSYSLTISSMEAEDAATYYCQQWSSNPPTFGGGTKVEIK | – | – | – | – | – | binds
